# Laboratory results: PMC8765073 (mAbs, 2022)
# B1: D27LEY (antibody, V domains shown)
# VH: QVQLQQSGAEVKKPGSSVKVSCKASGGTFGNWSISWVRQAPGQGLEWMGGIAPGRGEATYAQKFQGRVTITTDESTSTAYMELSSLRSEDTAVYYCARETWYTSGGMDVWGQGTTVTVSS
# VL: SYELTQPPSVSVAPGKTARITCGGNNIGRKSVHWYQQKPGQAPVLVVYDDSDRPSGIPERFSGSNSGNTATLTISRVEAGDEADYYCQVYDLWSSDYVFGTGTKVEIK
# Columns and labels:
# [1] = molecular target: RBD of SARS-CoV-1 (Tor 2) (SARS-CoV-1, Tor2, UniProt P59594); assay: BLI
# [2] = molecular target: RBD of pangolin CoV (PCoV-GD1) (Pangolin coronavirus GD/1/2019 …); assay: BLI
binder,measurement,setting,value
B1,Kd,[1],< 0.001 nM
same,Kd,[2],0.66 nM
